Some results are limits rather than exact numbers.

As a reminder, the Kd is the constant that tells how readily two partners part at equilibrium. A higher Kd goes with weaker binding.

For this assay, the target named is purified human TNC protein (human) (UniProt P24821). The experiment in a line: BLI. For orientation: BLI is a label-free optical method that tracks binding on a fibre tip over time.

B1: NJT3 (VHH)
VHH: QVQLVETGGGLAQAGGSLRLSCAASGRTLSGYAMGWFRQAPGKEREFVAAISWSGRNTYYDYTVQGRFTISKDNAKNTVNLQMNSLKPEDTAVYYCAVSRSLDEFGDGYEMDYWGDGTQVTVSS
modifications: labelled with Texas Red via sortase-mediated tagging in the ex vivo imaging assay
On to B1, for which the Kd is < 1 pM.

B2: NJT6 (VHH)
VHH: QVQLVETGGDLVQPGGSLRLSCAASGLTLDYYAIGWVRQAPGKEREGVSCITPQDGNTYYDDSVMGRFTILRDNAKNMVYLQMNNLKPEDTAVYFCAAAGALTLDPSEYEYWGQGTQVTVSS
modifications: labelled with Texas Red or 64Cu via sortase-mediated tagging in the imaging assays
Consider B2, for which the Kd was < 1 pM.

B3: NJT4 (VHH)
VHH: QVQLVESGGGLVQPGGSLRLSCAASGFTFSSYTMRWYRQAPGKERELVAFIGVAGGSTKYADSVKGRFTISRDNTKNTVYLQMNTLKPEDTAVYYCYAPLTPYWGQGTQVTVSS
modifications: labelled with Texas Red via sortase-mediated tagging in the ex vivo imaging assay
Take B3: the Kd is < 1 pM.
